In patent US7993884B2, “Beta-xylosidase for conversion of plant cell wall carbohydrates to simple sugars” (The United States of America as represented by the …, priority 2006, dated 2011):
Values joined by “and” are separate entries in the source; they are usually repeats but may differ in a detail not shown here. Identical values can stand only once. Like-named read-outs stand apart in the source and are kept apart here.

Tests used:
[1] = substrate: O=[N+]([O-])c1ccc(O[C@@H]2OC[C@@H](O)[C@H](O)[C@H]2O)cc1; experiment: purified protein, by the assay type; format: biochemical, Selenomonas ruminantium GA192; details: other: pH 5.3, 25° C
Excerpt: Determination of Inhibition Constants

[2] = substrate: O=[N+]([O-])c1ccc(O[C@@H]2O[C@@H](CO)[C@H](O)[C@H]2O)cc1; experiment: purified protein, by the assay type; format: biochemical, Selenomonas ruminantium GA192; details: other: pH 5.3, 25° C
[3] = substrate: O=[N+]([O-])c1ccc(O[C@@H]2OC[C@@H](O)[C@H](O)[C@H]2O)cc1; experiment: purified protein, by the assay type; format: biochemical, Selenomonas ruminantium GA192; details: other: untreated control SXA, pH 7.0, 25° C
[4] = substrate: O=[N+]([O-])c1ccc(O[C@@H]2O[C@@H](CO)[C@H](O)[C@H]2O)cc1; experiment: purified protein, by the assay type
Experimental: Kinetics with 4NP Substrates
(§1) Two methods were employed for determining initial rates. […] Initial rates were calculated from fitting the absorbance readings versus time to a line (minimum of 4 points per reaction progression) and by using an extinction coefficient of 17.4 mM^−1 cm^−1. In Method B (continuous monitoring), temperature-equilibrated reactions (1 mL) were monitored at 380 nm (for pH values below 6) or 400 nm (for pH values of 6 and above). Reactions were generally monitored 0.3 min for initial rate determinations. Delta extinction coefficients (product-substrate) used for molar conversion were determined by subtracting the absorbance of substrate (at pH 5 so even very minor contaminating 4NP would not contribute) from the absorbance of 4NP for each reaction condition. […] The concentration of 4NP substrates was determined by incubating the substrate with excess enzyme until an end point was reached, adding an aliquot (0.01 to 0.1 mL) to 0.1 M NaOH, recording the absorbance at 400 nm and using the extinction coefficient of 18.3 cm^−1mM^−1. Unless indicated otherwise, for both Methods A and B, reactions were initiated by adding a small aliquot of enzyme (generally 7 μl of enzyme diluted into 10 mM sodium phosphate, pH 7.0, and incubated on wet ice or at ˜25° C.) to the 1-mL, temperature-equilibrated (25° C.) reaction mixtures. For pH studies, buffers of constant ionic strength (I=0.3 M), adjusted with NaCl, were used as indicated: 100 mM succinate-NaOH (pH 4.3-6), 100 mM sodium phosphate (pH 6-8), 30 mM sodium pyrophosphate (pH 8-9), glycine-NaOH (pH 9) and glycylglycine-NaOH (pH 9).

[5] = substrate: O=[N+]([O-])c1ccc(O[C@@H]2OC[C@@H](O)[C@H](O)[C@H]2O)cc1; experiment: purified protein, by the assay type; details: […]
Experimental: Kinetics with 4NP Substrates
as §1

[6] = substrate: OC1OC[C@@H](O[C@@H]2OC[C@@H](O[C@@H]3OC[C@@H](O[C@@H]4OC[C@@H](O[C@@H]5OC[C@@H](O)[C@H](O)[C@H]5O)[C@H](O)[C@H]4O)[C@H](O)[C@H]3O)[C@H](O)[C@H]2O)[C@H](O)[C@H]1O; experiment: purified protein, by the assay type; details: other: 100 mM succinate-NaOH, pH 5.3, 25° C
[7] = substrate: OC[C@@H]1O[C@@H](OC[C@@H]2OC(O)[C@H](O)[C@H]2O)[C@H](O)[C@H]1O; experiment: purified protein, by the assay type; details: other: 100 mM succinate-NaOH, pH 5.3, 25° C, pH 5.3
Experimental: (§2) Samples (25 μL) were injected onto the column equilibrated with 0.1 M NaOH and developed with a 15-min linear gradient (0.1 M NaOH to 15 mM sodium acetate) at ˜25° C. and a flow rate of 1 mL min^−1.
(§3) Before (time=0 min) and after (time=1-6 min) initiating reactions with enzyme (7 μL), samples (0.05-0.1 mL) were removed and quenched with an equal volume of 0.5 M acetic acid and frozen. Following lyophilization, samples were dissolved in H2O and analyzed by HPLC. […] Results from two replicate reactions were combined to provide data points for the progress curves.
(§4) Before and after addition of enzyme (7 μL), 25-μl aliquots of the reaction mixtures were directly injected onto the HPLC column for quantification of product L-arabinose.
(§5) Quenched samples were analyzed by HPLC for D-xylose. Initial rates were determined from linear regressions of [D-xylose] produced versus reaction time. […] Four 1-mL replicate reactions were conducted to supply data points for the progress curves. Two parallel reactions were conducted, under the same conditions with the same reaction components, the absorbance at 400 nm was continuously monitored (20 min) for 4NP production, and the absorbance values were converted to mM 4NP concentrations by using a delta extinction coefficient (product-substrate) of 8.22 mM^−1 cm^−1.

[8] = substrate: OC1OC[C@@H](O[C@@H]2OC[C@@H](O[C@@H]3OC[C@@H](O[C@@H]4OC[C@@H](O[C@@H]5OC[C@@H](O[C@@H]6OC[C@@H](O)[C@H](O)[C@H]6O)[C@H](O)[C@H]5O)[C@H](O)[C@H]4O)[C@H](O)[C@H]3O)[C@H](O)[C@H]2O)[C@H](O)[C@H]1O; experiment: purified protein, by the assay type; details: for Km: other: 100 mM succinate-NaOH, pH 5.3, 25° C
[9] = substrate: OC1OC[C@@H](O[C@@H]2OC[C@@H](O[C@@H]3OC[C@@H](O[C@@H]4OC[C@@H](O)[C@H](O)[C@H]4O)[C@H](O)[C@H]3O)[C@H](O)[C@H]2O)[C@H](O)[C@H]1O; experiment: purified protein, by the assay type; details: other: 100 mM succinate-NaOH, pH 5.3, 25° C
[10] = substrate: O=[N+]([O-])c1ccc(O[C@@H]2OC[C@@H](O[C@@H]3OC[C@@H](O)[C@H](O)[C@H]3O)[C@H](O)[C@H]2O)cc1; experiment: purified protein, by the assay type; details: other: 100 mM sodium phosphate, pH 7.0, 25° C, first step (4NPX2 to 4NPX+D-xylose), not well determined, pH 7.0
Experimental: as §2, §3, §4, §5

[11] = substrate: OC1OC[C@@H](O[C@@H]2OC[C@@H](O)[C@H](O)[C@H]2O)[C@H](O)[C@H]1O; experiment: purified protein, by the assay type; details: other: 100 mM succinate-NaOH, pH 5.3, 25° C
[12] = substrate: OC1OC[C@@H](O[C@@H]2OC[C@@H](O[C@@H]3OC[C@@H](O)[C@H](O)[C@H]3O)[C@H](O)[C@H]2O)[C@H](O)[C@H]1O; experiment: purified protein, by the assay type; details: for Km: other: 100 mM succinate-NaOH, pH 5.3, 25° C
[13] = target: T1, SXA (Selenomonas ruminantium, UniProt O52575)
Experimental: Initial rates were determined by monitoring reactions continuously at 400 nM for 0.3 min. […] Relative activity remaining data were fitted to equation 3, which describes a first order decay: A is the relative activity remaining at varied times of preincubation, A0 is the relative activity remaining at time zero of the preincubation, kobs is the first order rate constant, and t is the time of preincubation. Apparent affinities for D-xylose and D-glucose were determined by fitting kobs values from the monosaccharide protection studies to equation 4 where kobs is the observed first order rate constant for the decay, k0 is the first order rate constant in the absence of ligand (e.g., D-xylose), I is the ligand concentration in the preincubation mixture, and Ki is the dissociation constant of ligand from the enzyme-ligand complex.
Ligand protection studies contained varied concentrations of D-xylose or D-glucose in the pH 5.3 preincubation buffer at 55° C.

[14] = Isoelectric focusing of native SXA; format: physicochemical; details: IEF pH 3-10 gel
[15] = target: T1, SXA; experiment: pH stability of SXA and protection from low pH inactivation at pH 4.0 by monosaccharides
Experimental: Buffers of constant ionic strength (I=0.3 M), adjusted with NaCl, were used as indicated: 100 mM succinate-NaOH (pH 3.5-6), 100 mM sodium phosphate (pH 6-8), 30 mM sodium pyrophosphate (pH 8-9), and 100 mM glycine-NaOH (pH 9-10). […] Initial rates were determined by monitoring reactions continuously at 400 nM for 0.3 min. […] Relative activity remaining data were fitted to equation 3, which describes a first order decay: A is the relative activity remaining at varied times of preincubation, A0 is the relative activity remaining at time zero of the preincubation, kobs is the first order rate constant, and t is the time of preincubation. Apparent affinities for D-xylose and D-glucose were determined by fitting kobs values from the monosaccharide protection studies to equation 4 where kobs is the observed first order rate constant for the decay, k0 is the first order rate constant in the absence of ligand (e.g., D-xylose), I is the ligand concentration in the preincubation mixture, and Ki is the dissociation constant of ligand from the enzyme-ligand complex.

[16] = 4NP inhibition experiment, HPLC
[17] = D-xylose α:β ratio 1:2.5 experiment
[18] = D-xylose α:β ratio 6:1 experiment
[19] = other: 100 mM MES-NaOH, pH 6.00, 25° C, Method B, 50% sucrose, η/ηo 6.85, pH 6.0
[20] = other: 100 mM MES-NaOH, pH 6.00, 25° C, Method B, η/ηo 1.00, pH 6.0
[21] = other: 100 mM sodium phosphate, pH 7.0, 25° C, Method B, second step (4NPX to 4NP+D-xylose), pH 7.0
[22] = other: pH 5.3, 25° C (Example 1), approximate, pH 5.3

B1: Selenomonas ruminantium GA192 β-D-xylosidase (SXA), wild type, SEQ ID NO: 2 (Pseudoselenomonas ruminantium) (protein)
chain: MNIQNPVLKGFNPDPSIVRAGDDYYIATSTFEWFPGVQIHHSKDLVHWHLVAHPLSTTEFLDMKGNPDSGGIWAPDLSYADGKFWLIYTDVKVVDGMWKDCHNYLTTAEDIKGPWSKPILLNGAGFDASLFHDPSGKKYLVNMYWDQRVYHHNFYGIALQEYSVAEEKLIGKPEIIYKGTDIAYTEGPHLYYINDMYYLMTAEGGTTYQHSETIARSKTIHGPYEIQPDYPLLSAWKEVHNPLQKCGHASLVETQNGQWYLAHLTGRPLPAPAGFPSREREQHAFCPLGRETAIQKIEWQDGWPVVVGGQQGSLEVEAPDLPQQEWAPTYEERDDFDKDTLNINFQTLRIPFSEHLGSLTARPGFLRLYGRESLQSKFTQAHIARRWQSFNFDAGTSVEFSPNSFQQMAGLTCYYNTENWSSIHVTWNEEKGRIIDLVTADNGTFSMPLAGAEIPIPDEVKTVHFKVSVRGRIYQYAYSFDGETFHTLPIELPSWKLSDDYVRGGGFFTGAFVGINAIDITGTALPADFDYFTYKELD
Km [1, 16]: 758 ± 59 µM
kcat [1, 16]: 26.7 ± 1.1 s⁻¹
Km ([1]; D-xylose inhibition experiment): 716 ± 32 µM
kcat ([1]; D-xylose inhibition experiment): 32.1 ± 0.5 s⁻¹
Km [2, 17]: 900 ± 13 µM
kcat [2, 17]: 2.79 ± 0.01 s⁻¹
Km [2, 18]: 880 ± 130 µM
kcat [2, 18]: 2.78 ± 0.01 s⁻¹
Km [3]: 380 ± 5 µM
kcat [3]: 12.2 ± 0.05 s⁻¹
Km [4, 19]: 754 ± 101 µM
Km [4, 20]: 745 ± 36 µM
Km ([4]; other: 100 mM succinate-NaOH, pH 5.3, 25° C, Method A, no sucrose, pH 5.3): 810 ± 50 µM
kcat ([4]; other: pH profile, I=0.3 M, Method B): 3.25 ± 0.05 s⁻¹
Km [5, 19]: 637 ± 81 µM
Km [5, 20]: 699 ± 35 µM
Km [5, 21]: 443 ± 8 µM
kcat [5, 21]: 16.2 ± 0.09 s⁻¹
Km ([5]; other: pH 5.3, 25° C, Method A, 50% sucrose, η/ηo 6.12, pH 5.3): 690 ± 35 µM
Km [6]: 2860 ± 380 µM
Km ([6]; pH 5.3): 3700 ± 600 µM
Km [7]: 1200 ± 100 µM
Km [8]: 3120 ± 210 µM
Km ([8]; pH 5.3): 2700 ± 500 µM
kcat [8, 22]: 100 s⁻¹
Km [9]: 2750 ± 230 µM
Km ([9]; pH 5.3): 4000 ± 300 µM
Km [10]: 690 ± 430 µM
kcat [10]: 50.5 ± 25.7 s⁻¹
Km [11]: 2060 ± 80 µM
Km ([11]; pH 5.3): 4200 ± 500 µM
Km [12]: 2120 ± 100 µM
Km ([12]; pH 5.3): 3800 ± 600 µM
kcat [12, 22]: 170 s⁻¹

B2: SXA: β-D-xylosidase (E.C. 3.2.1.37) of Selenomonas ruminantium GA192, glycoside hydrolase family 43, GenBank AAB97967, SEQ. ID No. 2 (protein)
chain: MNIQNPVLKGFNPDPSIVRAGDDYYIATSTFEWFPGVQIHHSKDLVHWHLVAHPLSTTEFLDMKGNPDSGGIWAPDLSYADGKFWLIYTDVKVVDGMWKDCHNYLTTAEDIKGPWSKPILLNGAGFDASLFHDPSGKKYLVNMYWDQRVYHHNFYGIALQEYSVAEEKLIGKPEIIYKGTDIAYTEGPHLYYINDMYYLMTAEGGTTYQHSETIARSKTIHGPYEIQPDYPLLSAWKEVHNPLQKCGHASLVETQNGQWYLAHLTGRPLPAPAGFPSREREQHAFCPLGRETAIQKIEWQDGWPVVVGGQQGSLEVEAPDLPQQEWAPTYEERDDFDKDTLNINFQTLRIPFSEHLGSLTARPGFLRLYGRESLQSKFTQAHIARRWQSFNFDAGTSVEFSPNSFQQMAGLTCYYNTENWSSIHVTWNEEKGRIIDLVTADNGTFSMPLAGAEIPIPDEVKTVHFKVSVRGRIYQYAYSFDGETFHTLPIELPSWKLSDDYVRGGGFFTGAFVGINAIDITGTALPADFDYFTYKELD
modifications: selenomonas ruminantium
temperature up to which the enzyme is stable [13]: up to 55 °C
kobs, first-order inactivation rate constant of SXA ([13]; pH 5.3, 55° C., absence of monosaccharide (0 mM)): 0.0252 ± 0.0020 min⁻¹ and 0.0256 ± 0.0015 min⁻¹
isoelectric point [14]: approximately 4.4
pH below which SXA is unstable [15]: below 4.1
kobs, first-order inactivation rate constant of SXA ([15]; pH 4.0, 25° C., absence of monosaccharide (0 mM)): 0.0784 ± 0.0023 min⁻¹ and 0.0518 ± 0.0037 min⁻¹
